Source: IntAct's records for PubMed 17581628

B1: Ras-related protein Rab-5A (Homo sapiens), P20339 (parent)
chain: MASRGATRPNGPNTGNKICQFKLVLLGESAVGKSSLVLRFVKGQFHEFQESTIGAAFLTQTVCLDDTTVKFEIWDTAGQERYHSLAPMYYRGAQAAIVVYDITNEESFARAKNWVKELQRQASPNIVIALSGNKADLANKRAVDFQEAQSYADDNSLLFMETSAKTSMNVNEIFMAIAKKLPKNEPQNPGANSARGRGVDLTEPTQPTRNQCCSN
partner: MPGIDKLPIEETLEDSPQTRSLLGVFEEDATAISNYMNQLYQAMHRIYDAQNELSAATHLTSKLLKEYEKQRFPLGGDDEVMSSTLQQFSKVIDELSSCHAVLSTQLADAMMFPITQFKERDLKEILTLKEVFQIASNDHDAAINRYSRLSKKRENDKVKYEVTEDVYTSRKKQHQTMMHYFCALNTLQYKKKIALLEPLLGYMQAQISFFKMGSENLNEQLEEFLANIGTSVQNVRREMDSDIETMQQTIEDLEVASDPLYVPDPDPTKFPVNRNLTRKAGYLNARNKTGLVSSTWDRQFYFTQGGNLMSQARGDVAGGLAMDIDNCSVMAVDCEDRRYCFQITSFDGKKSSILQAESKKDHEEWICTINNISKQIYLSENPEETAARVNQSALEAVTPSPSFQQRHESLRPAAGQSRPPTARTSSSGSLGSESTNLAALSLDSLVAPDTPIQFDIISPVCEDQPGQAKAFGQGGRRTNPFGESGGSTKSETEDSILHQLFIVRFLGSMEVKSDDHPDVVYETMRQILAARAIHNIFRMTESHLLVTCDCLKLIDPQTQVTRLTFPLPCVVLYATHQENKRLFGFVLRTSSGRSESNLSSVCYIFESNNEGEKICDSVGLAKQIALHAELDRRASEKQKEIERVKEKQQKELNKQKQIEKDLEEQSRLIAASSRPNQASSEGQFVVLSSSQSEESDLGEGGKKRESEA
B2: DCC-interacting protein 13-alpha (Homo sapiens), Q9UKG1 (parent)
chain: B1 partner

Variants of: B1
Settings: with dp13a_human APPL1, Q9UKG1

Row | effect of a mutation on the interaction | Variant
1 | decreasing interaction | MASRGATRPNGPNTGNKICQFKLVLLGESAVGKSSLVLRFVKGQFHEFQESTIGAAFLTQTVCLDDTTVKFEIWDTAGQERYHSLAPMRYRGAQAAIVVYDITNEESFARAKNWVKELQRQASPNIVIALSGNKADLANKRAVDFQEAQSYADDNSLLFMETSAKTSMNVNEIFMAIAKKLPKNEPQNPGANSARGRGVDLTEPTQPTRNQCCSN [Y89R]

Variants of: B1
Settings: with dp13a_human APPL1, Q9UKG1
Remark: another data set of the same source

Row | effect of a mutation on the interaction | Variant
2 | decreasing interaction | MASRGATRPNGPNTGNKICQFKLVLLGESAVGKSSLVLRFVEGQFHEFQESTIGAAFLTQTVCLDDTTVKFEIWDTAGQERYHSLAPMYYRGAQAAIVVYDITNEESFARAKNWVKELQRQASPNIVIALSGNKADLANKRAVDFQEAQSYADDNSLLFMETSAKTSMNVNEIFMAIAKKLPKNEPQNPGANSARGRGVDLTEPTQPTRNQCCSN [K42E]

Variants of: B1
Settings: with dp13a_human APPL1, Q9UKG1
Remark: another data set of the same source

Row | effect of a mutation on the interaction | Variant
3 | disrupting interaction | MASRGATRPNGPNTGNKICQFKLVLLGESAVGKSSLVLRFVKGQFDEFQESTIGAAFLTQTVCLDDTTVKFEIWDTAGQERYHSLAPMYYRGAQAAIVVYDITNEESFARAKNWVKELQRQASPNIVIALSGNKADLANKRAVDFQEAQSYADDNSLLFMETSAKTSMNVNEIFMAIAKKLPKNEPQNPGANSARGRGVDLTEPTQPTRNQCCSN [H46D]

Variants of: B1
Settings: with dp13a_human APPL1, Q9UKG1
Remark: another data set of the same source

Row | effect of a mutation on the interaction | Variant
4 | disrupting interaction | MASRGATRPNGPNTGNKICQFKLVLLGESAVGKSSLVLRFVKGQFHEFQESTIGAAFLTQTVCLDDTTVKFEIRDTAGQERYHSLAPMYYRGAQAAIVVYDITNEESFARAKNWVKELQRQASPNIVIALSGNKADLANKRAVDFQEAQSYADDNSLLFMETSAKTSMNVNEIFMAIAKKLPKNEPQNPGANSARGRGVDLTEPTQPTRNQCCSN [W74R]

Variants of: B1
Settings: with dp13a_human APPL1, Q9UKG1
Remark: another data set of the same source

Row | effect of a mutation on the interaction | Variant
5 | decreasing interaction | MASRGATRPNGPNTGNKICQFKLVLLGESAVGKSSLVLRFVKGQFHEFQESTIGAAFLTQTVCLDDTTVKFEIWDTAGQERYHSLAPSYYRGAQAAIVVYDITNEESFARAKNWVKELQRQASPNIVIALSGNKADLANKRAVDFQEAQSYADDNSLLFMETSAKTSMNVNEIFMAIAKKLPKNEPQNPGANSARGRGVDLTEPTQPTRNQCCSN [M88S]

Variants of: B1
Settings: with dp13a_human APPL1, Q9UKG1
Remark: another data set of the same source

Row | effect of a mutation on the interaction | Variant
6 | decreasing interaction | MASRGATRPNGPNTGNKICQFKLVLLGESAVGKSSLVLRFVKGQFHENQESTIGAAFLTQTVCLDDTTVKFEIWDTAGQERYHSLAPMYYRGAQAAIVVYDITNEESFARAKNWVKELQRQASPNIVIALSGNKADLANKRAVDFQEAQSYADDNSLLFMETSAKTSMNVNEIFMAIAKKLPKNEPQNPGANSARGRGVDLTEPTQPTRNQCCSN [F48N]

Variants of: B1
Settings: with dp13a_human APPL1, Q9UKG1
Remark: another data set of the same source

Row | effect of a mutation on the interaction | Variant
7 | disrupting interaction | MASRGATRPNGPNTGNKICQFKLVLLGESAVGKSSLVLRFVKGQFHEFQESTIGAAFLTQTVCLDDTTVKFEIWDTAGQERYHSRAPMYYRGAQAAIVVYDITNEESFARAKNWVKELQRQASPNIVIALSGNKADLANKRAVDFQEAQSYADDNSLLFMETSAKTSMNVNEIFMAIAKKLPKNEPQNPGANSARGRGVDLTEPTQPTRNQCCSN [L85R]

Variants of: B2
Settings: with rab5a_human RAB5A

Row | effect of a mutation on the interaction | Variant
8 | disrupting interaction | A318D

Variants of: B2
Settings: with rab21_human RAB21, Q9UL25
Chain of rab21_human RAB21, Q9UL25 (Q9UL25 whole entry): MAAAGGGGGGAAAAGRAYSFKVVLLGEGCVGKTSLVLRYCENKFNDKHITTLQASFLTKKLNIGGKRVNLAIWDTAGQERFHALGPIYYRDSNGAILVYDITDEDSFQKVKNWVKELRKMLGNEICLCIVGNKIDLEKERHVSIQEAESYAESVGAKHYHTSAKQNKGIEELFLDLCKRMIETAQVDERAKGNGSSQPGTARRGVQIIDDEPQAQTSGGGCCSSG

Row | effect of a mutation on the interaction | Variant
9 | disrupting interaction | D324A

Variants of: B2
Settings: with rab5a_human RAB5A
Remark: another data set of the same source

Row | effect of a mutation on the interaction | Variant
10 | disrupting interaction | D324A

Variants of: B2
Settings: with rab21_human RAB21, Q9UL25
Remark: another data set of the same source

Row | effect of a mutation on the interaction | Variant
11 | decreasing interaction | L321D

Variants of: B2
Settings: with rab5a_human RAB5A
Remark: another data set of the same source

Row | effect of a mutation on the interaction | Variant
12 | disrupting interaction | L321D

Variants of: B2
Settings: with rab21_human RAB21, Q9UL25
Remark: another data set of the same source

Row | effect of a mutation on the interaction | Variant
13 | disrupting interaction | G319R

Variants of: B2
Settings: with rab5a_human RAB5A
Remark: another data set of the same source

Row | effect of a mutation on the interaction | Variant
14 | disrupting interaction | G319R

Variants of: B2
Settings: with rab21_human RAB21, Q9UL25
Remark: another data set of the same source

Row | effect of a mutation on the interaction | Variant
15 | disrupting interaction | D348K

Variants of: B2
Settings: with rab5a_human RAB5A
Remark: another data set of the same source

Row | effect of a mutation on the interaction | Variant
16 | disrupting interaction | M310K

Variants of: B2
Settings: with rab21_human RAB21, Q9UL25
Remark: another data set of the same source

Row | effect of a mutation on the interaction | Variant
17 | disrupting interaction | M310K

Variants of: B2
Settings: with rab5a_human RAB5A
Remark: another data set of the same source

Row | effect of a mutation on the interaction | Variant
18 | decreasing interaction | V25D

Variants of: B2
Settings: with rab21_human RAB21, Q9UL25
Remark: another data set of the same source

Row | effect of a mutation on the interaction | Variant
19 | decreasing interaction | V25D

Variants of: B2
Settings: with rab5a_human RAB5A
Remark: another data set of the same source

Row | effect of a mutation on the interaction | Variant
20 | disrupting interaction | N308D

Variants of: B2
Settings: with rab21_human RAB21, Q9UL25
Remark: another data set of the same source

Row | effect of a mutation on the interaction | Variant
21 | disrupting interaction | N308D

Variants of: B2
Settings: with rab21_human RAB21, Q9UL25
Remark: another data set of the same source

Row | effect of a mutation on the interaction | Variant
22 | decreasing interaction | E28K

Variants of: B2
Settings: with rab21_human RAB21, Q9UL25
Remark: another data set of the same source

Row | effect of a mutation on the interaction | Variant
23 | disrupting interaction | D316R
